Laboratory results: patent publication US20160340704A1, “METHOD OF MAKING A BENZYLISOQUINOLINE ALKALOID (BIA) METABOLITE, ENZYMES THEREFORE” (VALORBEC SOCIÉTÉ EN COMMANDITE, priority 2014, published 2016)

B1: EX72: CYP719 from Nandina domestica, SEQ ID NO: 351 (protein, listed as Nandina domestica)
chain: MDPMSLWAAIAIVLVMTLLVLLQTRTKSLPSSSTQWPTGPKTLPIIGNLHQLEGDVFHVALAKLAKMHGDIMTIWIGSWRPVIVISDYDKAWEVLVNKSSDYSARDMPEITKIASAGWRTISLSSSGPFWHTLRKGLQNGPFGPLNVSAQILSQERDMRRMIRDMQEEADINGGIVKPLGHLKKATVGLLTRLIFGQNFDDDSFIESIHHETEELIRISGYARLAEAFSYAKYLPSHRRAVKESYECKHRVEELVKPLLSSNPPKNSYLNFLQSQDYPEEVIIFCIFEIYLLGVDSTSSTTTWALAFLIHEPAVQEKLYQEVKCITNGDGGLVKAGDLSKFQYLQAVMKETMRMKPIAPLAIPHTTSKDTTLMGTKVAKGTRIMVNLYALHHNPNIWSEPFKFMPERFLQEQFNGVGGDANVKAIEQSFLPFSAGMRICAGMDLGKLQFSFALANLVNAFKWTTVADGKFPDMNEELSFVLLMKTPLEARIVPRKP
B2: EX94: N-truncated Papaver somniferum stylopine synthase (CYP719A20) with lettuce germacrene A oxidase N-terminal domain, SEQ ID NO: 373 (protein, listed as Papaver somniferum)
chain: MELSITTSIALATIVFFLYKLATRPKSTKKQLPEASRLPIIGHKRKKSSTMVWPTGPKTLPIIGNMHVLGGTALQVVLHNLAKIHGNVMTIWIGSWRPVIVVSDIDRAWEVLVNKSSDYSARDMPEITKIISADWKTISTSDSGPGWSNLRKGLQNVALSPHNLAAQSQFQEKDITKMIQSLKKEAASNNGIVKPIDHLKKATLRLISRLIFGQDFDDDKYVDDMHHAIEELIRVSGYAQLAEAFYYAKYLPSHKKAVRDVEEANQRVKKLVRPFLSLNPPTNTYLHFLNSQKYDEEVIIFAIFEAYLLGVDSTSLTTAWALAFLIREPVVQDKLYQELKNLTAKNDCEIVKVEDLNKLQYLQAVLKETMRMKPIAPLAIPHKACRDTSLKGNKIDQGTQVMVNIYALHHNEKVWKEPFKFMPERFLQTQDVVNGKGMEQSLLPFSAGMRICAGMELGKLQFSFSLANLVNAFEWSCVSDGVLPDMSDQLGFVLLMKTPLQARIVPRV
B3: EX60: CYP719 from Eschscholzia californica, BAG75114.1, SEQ ID NO: 339 (protein, listed as Eschscholzia californica)
chain: MEEMKFLMMNNPWVLTATFTTLLISIFLFVTRKTSNTEWPNGPKTLPIIGNMHLLGGTKALQVILHNLAKVYGGVMTIWIGSWRPVIIVSDIERAWEVLVNKSSDYSARELPEIIKYNAANFRTIATCDSGPHWSNLRKGLQNVALSPHNLAAQFQFQEKDITKMIQNLEVEAKNNNGIVQPLDHLKKATIRLISRLIFGQDFDEDTYVEKLHHTIDELIRMSGYAQLAEAFYYARYLPNHKKAVNHAAKTKQIVTHLMRPFLSLNPPTNSYLHFLQSQNYDEELIIFSIFEVYLLGVDSTSSTTAWALAYLVREPNVQETLYQELDNFAKQNDRKILKVEDINKLQYLQAVTKETMRMKPIAPLAIPHKASRDTTLMGKKVEKGTKVMVNLHALHHNENVFNDPYKFMPERFLKSYQGAKAKAMEQSYLPFSAGMRICGGMEVGKLQFGFALANLAYAFKWSCAVNGVLPDMSDELGFVLFMKTPLEARIVRRN
B4: EX50: CYP719 from Coptis japonica, Q948Y1.1, SEQ ID NO: 329 (protein, listed as Coptis japonica)
chain: MEMNPLLVCATVAIVFATTTIIRILFSSSSLPQMKWPSGPRKLPIIGNLHQLGDDVLHVALAKLAKVHGSVMTIWIGSWRPVIVISDIEKAWEVLVNKSADYGARDMPEITKIASASWHTISTSDAGSFWQNVRKGLQSGAMGPLNVAAQNQYQERDMKRLIKAMSDEAANNNGIVKPLDHIKKNTVRLLTRLIFGQAFDDNKFIESMHYEIEDIIRISGYARLAEAFYYAKYLPSHKKAEREAFLVKCRVEELVRPLLSSKPPTNSYLYFLLSQNFEEEVIIFCIFELYLLGVDSTSSTTTWALAYLIREQGAQEKLYQDIRMTLGDVDLVKIEDVNKLKYLQGVVKETMRMKPIAPLAIPHKTAKETTLMGTKVAKGTRIMVNLYALHHNQNIWPDPYKFMPERFLEGETGTAYNKAMEQSFLPFSAGMRICAGMDLGKLQFAFALANLVNAFKWSCVEEGKLPDMGEELSFVLLMKTPLEARIAGRNV
B5: EX98: CYP719 from Stylophorum diphyllum, SEQ ID NO: 377 (protein, listed as Stylophorum diphyllum)
chain: MEESFWLVTATVVVVFVIAKLQFRKSSSISTMEWPAGPKTLPIIGNLHQLGGAALHVVLANLAKAYGSVMTIWVGSWRPMIVISDFDKAWEVLVNKSSDYSARSLPEITRIISANWKNIMTSDSGPFWQNLRKGLQSGALSPHNVMSQYQLQERDMQNLIKTMRVEAFKNNGRIKPLDHLKQETVRLLSRLIFGQDFNDEKLVVGMHHALDDLVRISGYASLADAFKFAENLPSHKKSIREVHELKKRVENLVRPHIVSNPPTNTYLNFLQSQNFSEDLIISAILEVYDLGVDSTASTTVWALTFLVRELKVQEKLYQEIKNLTGGRSTVKVEEVSKMPYLQAVMKETMRMKPIAPMAIPHTAARETSLMGKKIDKGTVVMVNLYAIHHNPNIFPEPYKFMPERFLHGEEQNGGNIKEMEQSLLPFSAGMRICAGMELGKLQLGFALASLVNAFKWECAVDGKLPDMSEDHCFILLMKNPLEAKITPRTH
B6: EX54: CYP719 from Chelidonium majus, SEQ ID NO: 333 (protein, listed as Chelidonium majus)
chain: MEESFWLVAATVLVVFVVAKLLFRKSSSISTMEWPAGPKTLPIIGNLHQLGGAALHVVLANLAKVYGSVMTIWVGAWRPMIVISDIDKAWEVLVNKSSDYSARSLPEITRIISANWKNIMTSDSGPFWQNLRKGLQGGALSPHNVMSQYQLQERDMQNLIKTMRVEASKNNGRIKPLDHLKQETVRLLSRLIFGQDFNDEKLVVGMHHALDDLVRISGYASLADAFKVAENLPSHKKSIREVHELKRRVENLVRPHIVSNPPTNTYLNFLLSQNFSEDLIISAILEVYDLGVDSTASTTVWALTFLVREQKVQEKLYQEIKNLTGGRSTVKVEEVSKMPYLQAVMKETMRMKPIAPMAIPHTAARETSLMGKKIDKGTVVMVNLYAIHHNPNIFPEPYKFMPERFLHGEEQNGGNIKEMEQSLLPFSAGMRICAGMELGKLQLGFALASLVNAFKWECAADGKLPDLSEDHCFILLMKNPLEAKITPRTH

Key:
scoulerine = assay: CYP719s in GC1316 (integrated PsCPR and PsCFS) supplemented with scoulerine; type: cell-based, Saccharomyces cerevisiae; conditions: CYP719 expressed with PsCFS and PsCPR
Description: Plasmids harboring CYP719s were transformed into either GC1333 containing an integrated PsCPR (FIG. 10A) or GC1316 containing an integrated PsCPR and an integrated PsCFS (FIG. 10B). Strain GC1333, harboring PsCPR integrated into the chromosome, was transformed with pBOT plasmids, with GFP removed, harboring individual CYP719s (CYP719 EX41-105). (See Tables 7-8 below presenting the nature and activity of these CYP719s).
Plasmids harboring individual CYP719s were transformed into strain GC1316, which harbored PsCPR and PsCFS integrated into the genome. Strains were supplemented with scoulerine and after 16 hours total BIAs were extracted and the molar ratio was compared (FIG. 10B). The four possible BIAs that could be extracted were scoulerine, the single Ring A product nandinine, the single Ring B product cheilanthifoline, and the double Ring A, Ring B product stylopine.

[1] = Microsomal cytochrome P450 enzyme assay of PsCFS and PsSPSΔN incubated with (S)-scoulerine; type: biochemical, Papaver somniferum; conditions: microsomes with PsCPR; 125 μM (S)-scoulerine, 500 μM NADPH
Description: The pESC-CPR vector encoding opium poppy cytochrome P450 reductase (PsCPR) fused to a c-Myc tag was used for the heterologous expression of plant proteins in S. cerevisiae^25. The amplicon was inserted into NotI and SpeI restriction sites of pESC-CPR in-frame with a FLAG-tag sequence yielding pESC-CPR/CFS. […]
Analysis of enzyme assays was performed using an Agilent™ 1200 liquid chromatography system equipped with a 6410 triple-quadrupole mass spectrometer (Agilent Technologies; Santa Clara, Calif.). […] Scoulerine, cheilanthifoline, and stylopine were detected in multiple reaction monitoring (MRM) mode using a collision energy of 25 eV and monitored transitions of m/z 328→178, 326→178 and 324→176, respectively.
Constructs for the heterologous expression of PsCFS and PsSPS in S. cerevisiae were assembled in a vector harbouring PsCPR (Table 1 above). […] No conversion of scoulerine was detected in the negative control. […]

cheilanthifoline = assay: CYP719 Ring A closure of cheilanthifoline to stylopine in GC1333; type: cell-based, Saccharomyces cerevisiae
Description: (§1) FIG. 11A-B: showing conversion of (S)-cheilanthifoline (FIG. 11A) or (S)-nandinine (FIG. 11B) to (S)-stylopine by purchased CYP719s. Plasmids harboring CYP719s were transformed into GC1333 containing an integrated PsCPR. Strains were incubated with the appropriate BIA overnight, and then total BIAs were extracted and total molar ratios were compared. PsSPSΔN was used as a control.
(§2) The 10 CYP719s with 95% activity on Ring A of scoulerine and the 10 CYP719s with activity on Ring B of scoulerine were tested for activity on cheilanthifoline and nandinine, respectively, in order to generate a branched stylopine synthesis pathway. […] CYP719s PsCFS and EX101, capable of converting >98% of scoulerine to cheilanthifoline and nandinine, respectively, were incubated with scoulerine. After 16 h, cells were pelleted and the supernatant fraction was collected. The supernatant was then applied to fresh yeast strains in order to supplement them with either TE containing nandinine or cheilanthifoline as necessary.

nandinine = assay: CYP719 Ring B closure of nandinine to stylopine in GC1333; type: cell-based, Saccharomyces cerevisiae
Description: as §1, §2

Molecule	residual cheilanthifoline (scoulerine)	conversion of nandinine to stylopine (nandinine)	also measured
B1	residual cheilanthifoline was detected	–	–
B2	–	–	conversion of (S)-scoulerine by microsomal proteins (LC-MS products) [1]: converted to cheilanthifoline and stylopine
B3	residual cheilanthifoline was detected	–	–
B4	residual cheilanthifoline was detected	–	conversion of cheilanthifoline to stylopine (cheilanthifoline): > 98%
B5	–	> 98%	–
B6	–	> 98%	–
